In patent US20230331848A1 (BIOSION, published 2023):
Where two headings read alike, the source gives them in different places.

B1: Pembrolizumab (antibody, V domains shown)
VH: QVQLVQSGVEVKKPGASVKVSCKASGYTFTNYYMYWVRQAPGQGLEWMGGINPSNGGTNFNEKFKNRVTLTTDSSTTTAYMELKSLQFDDTAVYYCARRDYRFDMGFDYWGQGTTVTVSS
VL: EIVLTQSPATLSLSPGERATLSCRASKGVSTSGYSYLHWYQQKPGQAPRLLIYLASYLESGVPARFSGSGSGTDFTLTISSLEPEDFAVYYCQHSRDLPLTFGGGTKVEIKR
B2: Nivolumab (antibody, V domains shown)
VH: QVQLVESGGGVVQPGRSLRLDCKASGITFSNSGMHWVRQAPGKGLEWVAVIWYDGSKRYYADSVKGRFTISRDNSKNTLFLQMNSLRAEDTAVYYCATNDDYWGQGTLVTVSS
VL: EIVLTQSPATLSLSPGERATLSCRASQSVSSYLAWYQQKPGQAPRLLIYDASNRATGIPARFSGSGSGTDFTLTISSLEPEDFAVYYCQQSSNWPRTFGQGTKVEIK
B3: humanized antibody huE1A9C8A7-V3 (antibody, human IgG4 S228P, kappa, V domains shown)
VH: QVQLVQSGAEVVKPGASVKISCKASGYTFSDYVMHWVRQAPGQSLEWIGVISTYHIPAVYNQKFKGKATMTVDKSTSTVYLELSSLRSEDTAVYYCAREVYGDSYYFDVWGQGTTVTVSS
VL: DIVMTQTPLSLPVTPGEPASISCRSSQSIVHSNGNTYLEWYLQKPGQSPQLLIYKVSNRFSGVPDRFSGSGSGTDFTLKISRVEAEDVGVYYCFQGSHVPYTFGGGTKVEIKR
notes: Human IgG4/kappa

Key:
[1] = target: T1, in house made human PD-1-Fc protein (human, biotin-labeled (sites not given)); experiment: competitive ELISA: antibody pre-mixed with biotin-labeled human PD-1-Fc, added to coated human PD-L1-Fc (blocked ligand); unit from the axis 'Con of mAb, nM.'
T1 construct: also called biotin-labeled human PD-1-Fc
Description: (§1) The activities of the anti-PD1 antibodies of the disclosure to block PD-L1-PD1 binding were measured in a competitive ELISA.
(§2) Briefly, 100 μl human PD-L1-Fc protein (prepared in-house with SEQ ID NO: 28) at 2 μg/mL in carbonate/bicarbonate buffer (pH 9.6) was coated on 96-well micro plates overnight at 4° C., Plates were washed with wash buffer (PBS+0.05% w/v Tween-20, PBST), and blocked with 5% w/v non-fatty milk in PBST for 2 hours at 37° C. […] After incubation at 37° C. for 40 minutes, plates were washed using wash buffer. […] Plates were washed again using wash buffer. Finally, TMB was added and the reaction was stopped using 1M H₂SO₄. The absorbance was read on a microplate reader using dual wavelength mode with 450 nm for TMB and 630 nm as the reference wavelength, then the OD (450-630) values were plotted against antibody concentrations. Data was analyzed using Graphpad Prism software and IC₅₀ values were reported.

[2] = target: T1, in house made human PD-1-Fc protein; experiment: competitive ELISA: soluble Pembrolizumab pre-mixed with biotin-labeled human PD-1-Fc, added to coated Pembrolizumab (self-competition); unit from the axis 'Con of mAb, nM.'
[3] = target: T1, in house made human PD-1-Fc protein; experiment: as above; remark: listed apart in the source
[4] = target: T1, in house made human PD-1-Fc protein; experiment: cell-based blocking FACS: antibody pre-mixed with biotin-labeled human PD-1-Fc, added to GS-C2/PD-L1 cells expressing human PD-L1 (blocked ligand); unit from the axis 'Con of mAb, nM.'
Description: (§3) GS-C2/PDL1 cells were harvested from cell culture flasks at the log phase, washed twice and re-suspended in PBS containing 2% v/v Fetal Bovine Serum (FACS buffer). GS-C2/PD-L1 cells, 0.6×10⁵ cells per welt, were incubated in 96 well-plates with 100 the antibody/PD1-Fc mixture for 40 minutes at 4° C. Cells were washed twice with FACS buffer, added with 100 R-Phycoerythrin Streptavidin (1:500 dilution in FACS buffer, Cat#:016-110-084, Jackson Immunoresearch), and incubated for 40 minutes at 4° C. in dark. Cells were washed twice and re-suspended in FACS buffer. Fluorescence was measured using a Becton Dickinson FACS Canto II-HTS equipment. Data was analyzed using Graphpad Prism software and IC₅₀ values were reported.

[5] = target: T1, in house made human PD-1-Fc protein; experiment: competitive ELISA: antibody pre-mixed with biotin-labeled human PD-1-Fc, added to coated human PD-L1-Fc (blocked ligand); unit from the axis 'Con of mAb, nM.'; remark: listed apart in the source
Description: as §1, §2

[6] = target: T1, in house made human PD-1-Fc protein; experiment: capture ELISA: antibody captured on anti-human IgG coated plate, biotin-labeled human PD-1-Fc detected with streptavidin-HRP; unit from the axis 'Con of mAb, nM.'
[7] = target: T2, cynomolgus PD-1-his protein (Cat#:PD1-05223, Acro biosystems Inc.) (cynomolgus, UniProt B0LAJ3 25-170); experiment: indirect ELISA on coated cynomolgus PD-1-his
T2 construct: Bought protein used in Biacore and indirect ELISA; also called monkey PD-1; Cyno PD-1

[8] = target: T1, in house made human PD-1-Fc protein; experiment: blocking FACS: biotin human PD-1-Fc + antibody on GS-C2/PD-L1 cells (competitor: cell-surface human PD-L1)
Description: as §3

[9] = target: T2, cynomolgus PD-1-his protein …; experiment: indirect ELISA on coated cynomolgus PD-1-his; unit from the axis 'Con of mAb, nM.'
Description: (§4) Briefly, 96-well micro plates were coated with 100 μl 2 μg/ml mouse PD-1-his (Cat#:50124-M08H, Sino Biological Inc) or 2 μg,/ml cynomolgus PD-1-his (Cat#:PD1-05223, Acro biosystems Inc.) in carbonate/bicarbonate buffer (pH 9.6) for 2 hours at 37° C. Plates were washed once with wash buffer (PBST, PBS+0.05% Tween-20) and then blocked with 200 μl blocking buffer (5% w/v non-fatty milk in PBST) for 2 hours at 37° C. […] ELISA plates were washed 4 times and incubated with Peroxidase AffiniPure goat anti-mouse IgG, Fcγ Fragment Specific (1:5000 dilution in PBST buffer, Cat#:115-035-071, Jackson ImmunoResearch Laboratories, Inc., 100 μl/well) or Peroxidase AffiniPure F(ab′)₂ Fragment Goat Anti-Human IgG, Fcγ fragment specific (Cat#:109-036-098, Jackson ImmunoResearch, for the controls) for 40 minutes at 37° C. After a final wash, plates were incubated with 100 μl/well TMB (Cat#:TMB-S-002, innoreagents) at room temperature. The reaction was stopped 3-10 minutes later with 50 μl/well 1M H₂SO₄, and the absorbance was read on a microplate reader using dual wavelength mode with 450 nm for TMB and 630 nm as the reference wavelength. Then the OD (450-630) values were plotted against antibody concentrations. Data was analyzed using GraphPad Prism software and EC₅₀ values were reported.

[10] = target: T2, cynomolgus PD-1-his protein …; experiment: as above; remark: listed apart in the source
Description: as §4

[11] = target: T1, in house made human PD-1-Fc protein; experiment: capture ELISA: antibody captured on anti-human IgG coated plate, biotin-labeled human PD-1-Fc detected with streptavidin-HRP; unit from the axis 'Con of mAb, nM.'; remark: listed apart in the source
[12] = target: T2, cynomolgus PD-1-his protein …; experiment: SPR (Biacore T200), antibody captured on Protein G chip, PD-1-his in flow, 1:1 fit
[13] = target: T3, human PD-1-his protein (Cat#:PD1-H5221, Acro biosystems Inc.) (human, UniProt Q15116 25-167); experiment: BLI (Octet RED96), cell supernatant antibody captured on AHC sensor, human PD-1-his in solution
T3 construct: not shown: his tag
Description: Briefly, AHC biosensors (anti-human IgG Fe capture, from ForteBio) were presoaked with 10 mM glycine (pH 1.5) for 3 seconds, and then dipped in a well with running buffer (0.5% w/v BSA in PBST) for 3 seconds, the soaking and dipping steps were repeated for three times. […] A new baseline was run for 100 seconds in another well with running buffer. Then the sensors were dipped in a well with serially diluted human PD-1-his protein (Cat#:PD1-H5221, Acro biosystems Inc., starting at 100 nM with a two-fold serial dilution) in running buffer for 120 seconds, and then immersed in a baseline well for […]. Finally, sensors were presoaked with 10 mM glycine (pH 1.5) for 30 seconds, and then were dipped in a well with running buffer for 30 seconds. The association and dissociation curves were fit to a 1:1 Langmuir binding model using ForteBio Data Analysis 8.1 evaluation software.

Binder	IC50 [1] [nM]	IC50 [2] [nM]	IC50 [3] [nM]	IC50 [4] [nM]	IC50 [5] [nM]	EC50 [6] [nM]	EC50 [7] [nM]	IC50 [8] [nM]	EC50 [9] [nM]	EC50 [10] [nM]	EC50 [11] [nM]	Kd [12] [nM]	binding result [13]
B1	0.37	0.0735	0.0759	0.32	0.345	0.118	0.2	0.49	0.093	0.0957	0.113		
B2							0.23	0.52				5.64	
B3													no binding (tested: antigen series starting at 100 nM)
